In the RNAGym collection of RNA variant scans (doi:10.1073/pnas.2313332121):
Fewer inactive variants are shown than the library holds.

B1: TPR 5TU (parent)
chain: GGAUCUUCUCGAUCUAACAAAAAAGACAAAUCUGCCACAAAGCUUGAGAGCAUCUUCGGAUGCAGAGGCGGCAGCCUUCGGUGGCGCGAUAGCGCCAACGUUCUCAACUAUGACACGCAAAACGCGUGCUCCGUUGAAUGGAGUUUAUCAUG

Variants of: B1
Assay: polymerase ribozyme fitness, log enrichment relative to wild type (log ratio); higher = more active; in vitro selection for triplet polymerase activity
Outline: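 Libraries of mutants in each subunit of a heterodimeric triplet polymerase ribozyme were generated by PCR and transcribed. In triplicate, each went through one in vitro selection round: annealing with biotinylated primer, partner subunit and triplets; frozen incubation at −7 °C; gel excision of extended constructs; streptavidin-bead capture; RT-PCR. Fitness, taken from Illumina sequencing of input and output libraries, is the logarithm of a genotype's enrichment over wild-type enrichment, averaged across replicates with inverse-variance weights. The logarithm is base 2, and genotypes needed ≥10 input reads and ≥1 read per output to be kept.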

Compared with C103U U139A, C108A G143U U144G is lower in “polymerase ribozyme fitness (log ratio)” value: -3.96 for the first, no more than -4.2 for the second.

First: C103A U144G
Second: A115U G126A
The “polymerase ribozyme fitness (log ratio)” value of the first is higher: -2.84 for the first, -3.35 for the second.

First: A107U A115G
Second: A106U U135A
The “polymerase ribozyme fitness (log ratio)” value of the first is lower: -4.16 for the first, -2.14 for the second.

Compared with A106G U134A, C108U A142C is lower in “polymerase ribozyme fitness (log ratio)” value: -1.28 for the first, -3.43 for the second.

Compared with U111C G117U, G112U G141A U148G is lower in “polymerase ribozyme fitness (log ratio)” value: -4.09 for the first, no more than -4.2 for the second.

Compared with C114U G141C, C105U A120U G124A is higher in “polymerase ribozyme fitness (log ratio)” value: -3.4 for the first, 0.877 for the second.

Compared with A106C, A106U is higher in “polymerase ribozyme fitness (log ratio)” value: -0.467 for the first, -0.23 for the second.

First: A106G
Second: C105G U127C U139G
The “polymerase ribozyme fitness (log ratio)” value of the first is higher: 0.398 for the first, -2.77 for the second.

C105G A107U U148C and U109A G141A A142U cannot be ordered by “polymerase ribozyme fitness (log ratio)” value: no more than -4.2 for the first, no more than -4.2 for the second.

Compared with C103G C108G G124C U144A U145G, C114U A137U is higher in “polymerase ribozyme fitness (log ratio)” value: no more than -4.2 for the first, -4.05 for the second.

Going from C105G C118A to C114G G133A, the “polymerase ribozyme fitness (log ratio)” value falls from -3.26 to no more than -4.2.

A106G G117A and U104G G141U are within 0.2 log units of each other in “polymerase ribozyme fitness (log ratio)” value: 0.816 for the first, 0.973 for the second.

First: A106G C116U U148C
Second: A113U G124U
The “polymerase ribozyme fitness (log ratio)” value of the first is higher: -1.25 for the first, -2.07 for the second.

Compared with A113U G124C, A115C G133U is lower in “polymerase ribozyme fitness (log ratio)” value: -3.17 for the first, -3.74 for the second.

Going from C114U G136C to G112U, the “polymerase ribozyme fitness (log ratio)” value rises from -3.39 to -2.77.

First: G112C
Second: G112A
The “polymerase ribozyme fitness (log ratio)” value of the first is lower: -2.68 for the first, -1.96 for the second.

Compared with A113C U134C A137C G140A U148G, C108U A115G is higher in “polymerase ribozyme fitness (log ratio)” value: no more than -4.2 for the first, -3.94 for the second.

Going from C116U A119G to C116U A119U, the “polymerase ribozyme fitness (log ratio)” value rises from -0.704 to -0.298.

Going from A107U A120G C132A A147C to A115U G141C, the “polymerase ribozyme fitness (log ratio)” value rises from no more than -4.2 to -3.37.

Compared with C108U C132A U139A, U102G U148A is higher in “polymerase ribozyme fitness (log ratio)” value: no more than -4.2 for the first, -3.81 for the second.

Compared with C114U G140C A150C, C114U A147C is higher in “polymerase ribozyme fitness (log ratio)” value: no more than -4.2 for the first, -2.83 for the second.

First: C116U A119U U135C
Second: A107G C118U U145A
The “polymerase ribozyme fitness (log ratio)” value of the first is higher: -2.59 for the first, no more than -4.2 for the second.

Going from A115C U145C to U109G C118A C125G, the “polymerase ribozyme fitness (log ratio)” value falls from -2.43 to -3.62.

Going from C116G A120U to C108A G124U G140C, the “polymerase ribozyme fitness (log ratio)” value falls from 0.554 to no more than -4.2.

Going from C103G A121G to C116G A119U, the “polymerase ribozyme fitness (log ratio)” value rises from -1.32 to 0.403.

Compared with C103A A115C, C103A A115U is lower in “polymerase ribozyme fitness (log ratio)” value: -2.54 for the first, -3.09 for the second.

Compared with C114G A119G, A107G G141U is lower in “polymerase ribozyme fitness (log ratio)” value: -2.84 for the first, -3.07 for the second.

Compared with A106C G152U, A106G A142C is higher in “polymerase ribozyme fitness (log ratio)” value: -2.57 for the first, -0.922 for the second.

Going from A115G G141A to A107U A110U C114U, the “polymerase ribozyme fitness (log ratio)” value falls from -0.426 to no more than -4.2.

Compared with C105U A142C, C114A U144G is lower in “polymerase ribozyme fitness (log ratio)” value: -0.229 for the first, -3.71 for the second.

First: C105G U134C G140U
Second: C108G G136A A147C
The “polymerase ribozyme fitness (log ratio)” value of the first is higher: -4.18 for the first, no more than -4.2 for the second.

Compared with C103G U135A, C114G G140C G141U is lower in “polymerase ribozyme fitness (log ratio)” value: -2.27 for the first, no more than -4.2 for the second.

First: C105G A120U
Second: C116A U151C
The “polymerase ribozyme fitness (log ratio)” value of the first is higher: -0.931 for the first, -4.09 for the second.

Going from U109G C116A to U109G C116G, the “polymerase ribozyme fitness (log ratio)” value rises from -2.26 to -0.501.

First: A115U U134C
Second: A115C A142G A150U
The “polymerase ribozyme fitness (log ratio)” value of the first is higher: -1.19 for the first, -3.13 for the second.

First: U109G A142C
Second: A106G A115U
The “polymerase ribozyme fitness (log ratio)” value of the first is lower: -2.18 for the first, -1.05 for the second.

First: C103A G117U
Second: U109G C114G
The “polymerase ribozyme fitness (log ratio)” value of the first is higher: -0.489 for the first, -3.7 for the second.

Compared with A115G C116A U127G, C103G A138G is higher in “polymerase ribozyme fitness (log ratio)” value: no more than -4.2 for the first, -3.66 for the second.

First: U109G G140U
Second: C116G U146G
The “polymerase ribozyme fitness (log ratio)” value of the first is lower: -3.76 for the first, -0.306 for the second.

U104G G126C and U104G G126A are within 0.2 log units of each other in “polymerase ribozyme fitness (log ratio)” value: 0.0565 for the first, 0.207 for the second.

First: A107C C118U
Second: C114U C125U
The “polymerase ribozyme fitness (log ratio)” value of the first is lower: no more than -4.2 for the first, -3.33 for the second.

Compared with U102G U104C U148A A150U, A106G A110U is higher in “polymerase ribozyme fitness (log ratio)” value: no more than -4.2 for the first, -3.42 for the second.

Compared with A107U U145A, C114U U148G is lower in “polymerase ribozyme fitness (log ratio)” value: -2.78 for the first, -3.06 for the second.

First: U111C
Second: U111A
The “polymerase ribozyme fitness (log ratio)” value of the first is higher: -1.77 for the first, -3.05 for the second.

Going from U111G to U104G A119C C123U, the “polymerase ribozyme fitness (log ratio)” value rises from -4.05 to 0.501.

Going from U104G U134G G143A to C114U A119U, the “polymerase ribozyme fitness (log ratio)” value rises from -3.69 to -1.73.

First: A107G C131A
Second: A107C A110G A121G
The “polymerase ribozyme fitness (log ratio)” value of the first is higher: -4.19 for the first, no more than -4.2 for the second.

Compared with A106C G141A, A115U U146G is lower in “polymerase ribozyme fitness (log ratio)” value: -0.24 for the first, -2.23 for the second.

First: A106C C116G
Second: A110U U127A
The “polymerase ribozyme fitness (log ratio)” value of the first is higher: -0.324 for the first, -4.06 for the second.

Compared with C103G A120U, U104A A137C is lower in “polymerase ribozyme fitness (log ratio)” value: -1.5 for the first, -3.89 for the second.

First: A107G C132U G133U
Second: U109G C118G U144A
The “polymerase ribozyme fitness (log ratio)” value of the first is higher: -3.52 for the first, -3.88 for the second.

Going from A110G A122G to C105A A113U, the “polymerase ribozyme fitness (log ratio)” value falls from -2.84 to no more than -4.2.

Compared with C116U A121U G124U, U104C U135G is lower in “polymerase ribozyme fitness (log ratio)” value: -2.02 for the first, -3.31 for the second.

Going from A107G U127C A138C to C114U U135C, the “polymerase ribozyme fitness (log ratio)” value rises from no more than -4.2 to -2.95.

Compared with C103G G117U, C103A A120C G124A U134A is lower in “polymerase ribozyme fitness (log ratio)” value: -0.61 for the first, -3.66 for the second.

C114U C131U and C103G A119C are within 0.2 log units of each other in “polymerase ribozyme fitness (log ratio)” value: -1.64 for the first, -1.49 for the second.

Going from C108G A122C to U104G, the “polymerase ribozyme fitness (log ratio)” value rises from no more than -4.2 to -0.299.

Compared with U104C, U104A is lower in “polymerase ribozyme fitness (log ratio)” value: 0.352 for the first, 0.0691 for the second.

Compared with C103A A120G C131U A138U, C116G is higher in “polymerase ribozyme fitness (log ratio)” value: -3.71 for the first, 0.655 for the second.

Going from C116U to C116A, the “polymerase ribozyme fitness (log ratio)” value rises from 0.103 to 1.34.

First: A106G U146A
Second: C103G U144A
The “polymerase ribozyme fitness (log ratio)” value of the first is higher: -0.139 for the first, -2.15 for the second.

Compared with C103G U151A, A115U U148G is higher in “polymerase ribozyme fitness (log ratio)” value: no more than -4.2 for the first, -4.15 for the second.

First: C103G G128C
Second: A115G U135A
The “polymerase ribozyme fitness (log ratio)” value of the first is lower: no more than -4.2 for the first, -2.48 for the second.

First: U109G G133C
Second: C103A A142G
The “polymerase ribozyme fitness (log ratio)” value of the first is higher: -2 for the first, -2.71 for the second.

Going from C114U C118G to C103G U145G, the “polymerase ribozyme fitness (log ratio)” value rises from -2.88 to -1.87.

First: A110G G136A
Second: A113U U146C
The “polymerase ribozyme fitness (log ratio)” value of the first is lower: -2.94 for the first, -1.49 for the second.

First: A113G A138U
Second: A106C C114A G140C G141C
The “polymerase ribozyme fitness (log ratio)” value of the first is higher: -3.79 for the first, no more than -4.2 for the second.

Compared with C114U C123U, C114U is higher in “polymerase ribozyme fitness (log ratio)” value: -2.17 for the first, -1.75 for the second.

C114G and C114A are within 0.2 log units of each other in “polymerase ribozyme fitness (log ratio)” value: -2.54 for the first, -2.72 for the second.

A110G C129U U144C and A113C C118A cannot be ordered by “polymerase ribozyme fitness (log ratio)” value: no more than -4.2 for the first, no more than -4.2 for the second.

Going from A115C U127C to A106G C125A, the “polymerase ribozyme fitness (log ratio)” value rises from -1.1 to -0.665.

A110U G128A and C103G A107G A142G cannot be ordered by “polymerase ribozyme fitness (log ratio)” value: no more than -4.2 for the first, no more than -4.2 for the second.

First: C116G G140C
Second: A110G
The “polymerase ribozyme fitness (log ratio)” value of the first is lower: -3.81 for the first, -2.42 for the second.

Going from A110U to A113G U134A, the “polymerase ribozyme fitness (log ratio)” value falls from -3.57 to no more than -4.2.

Going from C105U A119U G140A U146G to A115U A119G A138G, the “polymerase ribozyme fitness (log ratio)” value falls from -3.72 to no more than -4.2.

Going from A110C G112A G140C A142U to C105G A138G, the “polymerase ribozyme fitness (log ratio)” value rises from -4.12 to -3.88.

First: A115C
Second: A115U
The “polymerase ribozyme fitness (log ratio)” value of the first is higher: -0.641 for the first, -1.48 for the second.

Going from A115G to U104G U109A G133C, the “polymerase ribozyme fitness (log ratio)” value falls from -1 to -2.78.

Going from C108U A147C to C114A U139G, the “polymerase ribozyme fitness (log ratio)” value rises from -3.44 to -2.32.

Compared with C103U A115G, A106G C118U is higher in “polymerase ribozyme fitness (log ratio)” value: -1.14 for the first, 0.261 for the second.

Compared with C105U U109G G133C, A115C C123A is higher in “polymerase ribozyme fitness (log ratio)” value: -1.81 for the first, -1.17 for the second.

First: A115G G124A A150G
Second: A113U A120G
The “polymerase ribozyme fitness (log ratio)” value of the first is lower: -4 for the first, -1.73 for the second.

Compared with C103G G141U, A113G U148A is lower in “polymerase ribozyme fitness (log ratio)” value: -3.36 for the first, -4.05 for the second.

For U104G U135C G143C, the “polymerase ribozyme fitness (log ratio)” value was -3.79.
